# Data taken from patent US20060292140A1 (published 2006).
# B1: murine Act-1 monoclonal antibody (antibody, mouse IgG1, V domains shown)
# VH: QVQLQQPGAELVKPGTSVKLSCKGYGYTFTSYWMHWVKQRPGQGLEWIGEIDPSESNTNYNQKFKGKATLTVDISSSTAYMQLSSLTSEDSAVYYCARGGYDGWDYAIDYWGQGTSVTVSS
# VL: DVVVTQTPLSLPVSFGDQVSISCRSSQSLAKSYGNTYLSWYLHKPGQSPQLLIYGISNRFSGVPDRFSGSGSGTDFTLKISTIKPEDLGMYYCLQGTHQPYTFGGGTKLEIK
# notes: Mouse IgG1/kappa from the Act-1 hybridoma; also called mouse Act-1; ACT-1 (murine)
# B2: derivative of LDP-02 (Fc-mutated) having a mutation in the light chain (MV4) plus a double mutation in the heavy chain (R38K, A40R) (antibody, human IgG1, V domains shown)
# VH: QVQLVQSGAEVKKPGASVKVSCKGSGYTFTSYWMHWVKQRPGQRLEWIGEIDPSESNTNYNQKFKGRVTLTVDISASTAYMELSSLRSEDTAVYYCARGGYDGWDYAIDYWGQGTLVTVSS
# VL: DVVVTQSPLSLPVTPGEPASISCRSSQSLAKSYGNTYLSWYLQKPGQSPQLLIYGISNRFSGVPDRFSGSGSGTDFTLKISRVEAEDVGVYYCLQGTHQPYTFGQGTKVEIK
# notes: transient COS-7 expression; also called M4V / R38K, A40R derivative
# How the values were obtained:
# human α4β7 integrin [1] = molecular target: T1, human α4β7 integrin (human, UniProt P13612 34-1032; P26010 20-798); assay: cell-based or functional assay
# human α4β7 integrin [2] = molecular target: T1, human α4β7 integrin; assay: flow cytometry competition on HuT 78 cells; competitor biotinylated LDP-02/3A9/Lot#1 held constant
# Experimental: (§1) Unless otherwise indicated, all reagents were diluted in 0.15 M PBS/1.0% FCS/0.1% sodium azide. The varying concentrations for both antibodies ranged in half-log increments from 2.0×10⁻⁶M to 5.0×10⁻¹¹M. After removal of the primary antibodies, the cells were then suspended in 100 μl streptavidin phycoerythrin (Dako Corp., Carpinteria, Calif.) diluted 1:200. After washing in 200 μl PBS, cells were resuspended in 0.5 ml of PBS/1% formalin and refrigerated until analyzed. Samples were analyzed on a FACScan (Becton Dickinson Corp., San Jose, Calif.) using a 488 nm laser to excite phycoerythrin. For each sample, a minimum of 10,000 cells was analyzed and MCF calculated. All samples were performed in duplicate. The IC₅₀ was determined as the concentration of unconjugated antibody producing a 50% reduction in the MCF from the biotinylated homologue antibody.
# human α4β7 integrin [3] = molecular target: T1, human α4β7 integrin; assay: flow cytometry titration of biotinylated antibody on HuT 78 cells, half-maximal mean channel fluorescence
# Experimental: Unless otherwise indicated, all reagents were diluted in 0.15 M PBS/1.0% FCS/0.1% sodium azide. […] After washing in 200 μl PBS, cells were resuspended in 0.5 ml of PBS/1% formalin and refrigerated until analyzed. Samples were analyzed on a FACScan (Becton Dickinson Corp., San Jose, Calif.) using a 488 nm laser to excite phycoerythrin. […] All samples were performed in duplicate.
# human α4β7 integrin [4] = molecular target: T1, human α4β7 integrin; assay: flow cytometry competition on HuT 78 cells; competitor biotinylated murine Act-1 held constant; experiment 1, lot 2
# Experimental: as §1
# human α4β7 integrin [5] = molecular target: T1, human α4β7 integrin; assay: flow cytometry competition on HuT 78 cells; competitor biotinylated murine Act-1 held constant; experiment 2, lot 2
# Experimental: as §1
# human α4β7 integrin [6] = molecular target: T1, human α4β7 integrin; assay: flow cytometry competition on HuT 78 cells; competitor biotinylated murine Act-1 held constant; experiment 3, lot 2
# Experimental: as §1
# human α4β7 integrin [7] = molecular target: T1, human α4β7 integrin; assay: flow cytometry competition on HuT 78 cells; competitor biotinylated murine Act-1 held constant; experiment 4, lot 2
# Experimental: as §1
# human α4β7 integrin [8] = molecular target: T1, human α4β7 integrin; assay: flow cytometry competition on HuT 78 cells; competitor biotinylated murine Act-1 held constant; experiment 5, lot 2
# Experimental: as §1
# human α4β7 integrin [9] = molecular target: T1, human α4β7 integrin; assay: flow cytometry competition on HuT 78 cells; competitor biotinylated murine Act-1 held constant; mean of 5 experiments
# Experimental: as §1
# human α4β7 integrin [10] = molecular target: T1, human α4β7 integrin; assay: flow cytometry on HuT 78 cells, transient COS-7 expression
Binder,IC50: concentration which inhibited by 50% the adhesion of RPMI 8866 cells to human MAdCAM-1-Ig chimera (human α4β7 integrin [1]),IC50 (human α4β7 integrin [2]),EC50 (human α4β7 integrin [3]),IC50 (human α4β7 integrin [4]),IC50 (human α4β7 integrin [5]),IC50 (human α4β7 integrin [6]),IC50 (human α4β7 integrin [7]),IC50 (human α4β7 integrin [8]),IC50 (human α4β7 integrin [9]),binding result (human α4β7 integrin [10])
B1,0.0018 mg/L,6.3 nM,0.1 mg/L,7.57 nM,10.9 nM,6.02 nM,4.91 nM,10.2 nM,7.94 nM,
B2,,,,,,,,,,binds
